Data on 3 molecules can be found in patent publication US20230193513A1.

The target in this assay is glucagon-like peptide-1 receptor (GLP1R) (Homo sapiens (Human)) (UniProt P43220). As to the kind of experiment: cell-based or functional assay.
glucagon-like peptide-1 receptor (GLP1R) (Homo sapiens (Human)), sequence (P43220 24-463): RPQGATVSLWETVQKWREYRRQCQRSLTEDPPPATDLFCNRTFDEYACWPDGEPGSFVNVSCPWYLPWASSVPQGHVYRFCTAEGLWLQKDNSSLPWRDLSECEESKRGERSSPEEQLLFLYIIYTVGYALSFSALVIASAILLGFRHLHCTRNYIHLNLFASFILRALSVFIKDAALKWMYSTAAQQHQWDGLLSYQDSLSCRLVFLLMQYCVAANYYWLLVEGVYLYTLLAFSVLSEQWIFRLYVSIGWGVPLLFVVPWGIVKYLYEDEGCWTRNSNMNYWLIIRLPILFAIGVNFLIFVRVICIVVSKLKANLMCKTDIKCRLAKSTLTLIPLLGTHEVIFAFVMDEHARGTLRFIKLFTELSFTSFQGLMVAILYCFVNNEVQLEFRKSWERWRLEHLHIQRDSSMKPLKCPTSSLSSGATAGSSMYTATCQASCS

B1: GLP1R-59-243 (antibody, part only; not given: light chain, part only)
heavy: QVQLVQSGAEVKKPGSSVKVSCKASGGTFSTYGINWVRQAPGQGLEWMGGIIPIFGTANYAQKFQGRVTITADESTSTAYMELSSLRSEDTAVYYCARANQHFFGKGDNLAARDFINWLIQTKITDGSNPGYHYYGMDVWGQGTLVTVSSASASTKGPSVFPLAPCSRSTSESTAALGCLVKDYFPEPVTVSWNSGALTSGVHTFPAVLQSSGLYSLSSVVTVPSSNFGTQTYTCNVDHKPSNTKVDKTVERKCCVECPPCPAPPVAGPSVFLFPPKPKDTLMISRTPEVTCVVVDVSHEDPEVQFNWYVDGVEVHNAKTKPREEQFNSTFRVVSVLTVVHQDWLNGKEYKCKVSNKGLPAPIEKTISKTKGQPREPQVYTLPPSREEMTKNQVSLTCLVKGFYPSDIAVEWESNGQPENNYKTTPPMLDSDGSFFLYSKLTVDKSRWQQGNVFSCSVMHEALHNHYTQKSLSLSPG
In turn, B1 displayed an EC50 (nM) of the IgG as agonist, functional assay on GLP-1R overexpressing cells of 0.821 nM.

B2: GLP1R-59-241 (antibody, part only; not given: light chain, part only)
heavy: QVQLVQSGAEVKKPGSSVKVSCKASGGTFSDYAISWVRQAPGQGLEWMGGIIPIFGTTNYAQKFQGRVTITADESTSTAYMELSSLRSEDTAVYYCAKHMSMQGSVAGGTFTSDVSSYLEGQAAKEFIAWLVKGGPSFIRADLVGDAFDVWGQGTLVTVSSASASTKGPSVFPLAPCSRSTSESTAALGCLVKDYFPEPVTVSWNSGALTSGVHTFPAVLQSSGLYSLSSVVTVPSSNFGTQTYTCNVDHKPSNTKVDKTVERKCCVECPPCPAPPVAGPSVFLFPPKPKDTLMISRTPEVTCVVVDVSHEDPEVQFNWYVDGVEVHNAKTKPREEQFNSTFRVVSVLTVVHQDWLNGKEYKCKVSNKGLPAPIEKTISKTKGQPREPQVYTLPPSREEMTKNQVSLTCLVKGFYPSDIAVEWESNGQPENNYKTTPPMLDSDGSFFLYSKLTVDKSRWQQGNVFSCSVMHEALHNHYTQKSLSLSPG
As for B2, the EC50 (nM) of the IgG as agonist, functional assay on GLP-1R overexpressing cells is 0.722 nM.

B3: GLP1R-3 (antibody, from a related filing, V domains shown, part only)
VH: QVQLVESGGGVVQPGRSLRLSCAASGFTFSSYGMHWVRQAPGKGLEWVSFISYDESNKYYADSVKGRFTISRDNSKNTLYLQMNSLRAEDTAVYYCAKHMSMQEGAVTGEGQAAKEFIAWLVKGRVRADLVGDAFDVWGQGTLVTVSS
VL: QSVLTQPPSVSAAPGQKVTISCSGSSSNIADNYVSWYQQLPGTAPKLLIYDNNKRPSGIPDRFSGSKSGTSATLGITGLQTGDEADYYCGTWDNYLGAGVFGGGTKLTVLG
Consider B3, for which the EC50 (nM) of Exendin-4 induced cAMP activity with the antibody was determined as 0.63 nM, the EC50 (nM) of GLP1 (7-36)-induced signaling with GLP1R IgG (+100 nM) was found to be 1.31 nM, the fold difference of the EC50 against no antibody amounted to 2.2 fold and the fold-diff of the Exendin-4 EC50 against Exendin-4 alone is 5.4 fold.
